B1: BCY17224 (peptide)
peptide: Ac-CY[Cba]PDYLC[dA]DEYCK(Pent4ynoyl)-NH2
modifications: linker 1-8-13 via TATA
SMILES: C#CCCC(=O)NCCCC[C@H](NC(=O)[C@@H]1CSCCC(=O)N2CN3CN(C2)C(=O)CCSC[C@H](NC(=O)[C@H](CC(C)C)NC(=O)[C@H](Cc2ccc(O)cc2)NC(=O)[C@H](CC(=O)O)NC(=O)[C@@H]2CCCN2C(=O)[C@H](CC2CCC2)NC(=O)[C@H](Cc2ccc(O)cc2)NC(=O)[C@@H](NC(C)=O)CSCCC3=O)C(=O)N[C@H](C)C(=O)N[C@@H](CC(=O)O)C(=O)N[C@@H](CCC(=O)O)C(=O)N[C@@H](Cc2ccc(O)cc2)C(=O)N1)C(N)=O
notes: scaffold TATA
B2: BCY14456 (peptide)
peptide: ACNLQKPCMKYPCA-NH2
modifications: linker 2-8-13 via TATA; also: scaffold TATA, TATB or TBMT
notes: scaffold TATA
B3: BCY19735 (peptide)
peptide: ACDLTTHNCQWG[aIle]CA-NH2
modifications: linker 2-9-14 via TATA
notes: scaffold TATA
B4: BCY16834 (peptide)
peptide: ACK(Pent4ynoyl)LPDYLCGDEYCA-NH2
modifications: linker 2-9-14 via TATA; N-terminus assumed
SMILES: C#CCCC(=O)NCCCC[C@@H]1NC(=O)[C@@H](NC(=O)[C@H](C)N)CSCCC(=O)N2CN3CN(C2)C(=O)CCSC[C@@H](C(=O)N[C@@H](C)C(N)=O)NC(=O)[C@H](Cc2ccc(O)cc2)NC(=O)[C@H](CCC(=O)O)NC(=O)[C@H](CC(=O)O)NC(=O)CNC(=O)[C@H](CSCCC3=O)NC(=O)[C@H](CC(C)C)NC(=O)[C@H](Cc2ccc(O)cc2)NC(=O)[C@H](CC(=O)O)NC(=O)[C@@H]2CCCN2C(=O)[C@H](CC(C)C)NC1=O
notes: scaffold TATA
B5: BCY15108 (peptide)
peptide: ACDLTTHNCLWGVCA-NH2
modifications: linker 2-9-14 via TATA; also: scaffold TATA, TATB or TBMT
notes: scaffold TATA
B6: BCY15568 (peptide)
peptide: ACNLQLHNCQWGICA-NH2
modifications: linker 2-9-14 via TATA; also: scaffold TATA, TATB or TBMT
notes: scaffold TATA
B7: BCY15109 (peptide)
peptide: ACNLQLHNCIWGVCA-NH2
modifications: linker 2-9-14 via TATA; also: scaffold TATA, TATB or TBMT
notes: scaffold TATA
B8: BCY19734 (peptide)
peptide: ACDLTTHNCQWG[Nle]CA-NH2
modifications: linker 2-9-14 via TATA; N-terminus assumed
SMILES: CCCC[C@@H]1NC(=O)CNC(=O)[C@H](Cc2c[nH]c3ccccc23)NC(=O)[C@H](CCC(N)=O)NC(=O)[C@@H]2CSCCC(=O)N3CN(CN(C3)C(=O)CCSC[C@@H](C(=O)N[C@@H](C)C(N)=O)NC1=O)C(=O)CCSC[C@H](NC(=O)[C@H](C)N)C(=O)N[C@@H](CC(=O)O)C(=O)N[C@@H](CC(C)C)C(=O)N[C@@H]([C@@H](C)O)C(=O)N[C@@H]([C@@H](C)O)C(=O)N[C@@H](Cc1c[nH]cn1)C(=O)N[C@@H](CC(N)=O)C(=O)N2
notes: scaffold TATA

Numbered stars: 1 amine (or outer) side, 2 acyl side, 3 side chain; on linkers, the order of the positions; unused ones are H or OH. Bridge positions count the residues as written; N and C are the ends. Square brackets hold non-standard residues; d marks the D form. Ends that are not written are not given here. * marks the point of attachment. TATA = O=C(CC[*:1])N1CN(C(=O)CC[*:2])CN(C(=O)CC[*:3])C1; aIle = CC[C@@H](C)[C@H](N)C(=O)O; Cba = N[C@@H](CC1CCC1)C(=O)O; Nle = CCCC[C@H](N)C(=O)O; Pent4ynoyl = C#CCCC(=O)*

For the assay, the target named is T1, Human NKp46 Fc tag (Acro Biosystems, NC1-H5257) (human, UniProt O76036 22-255).
T1 construct: bought; also called Fc-tagged human NKp46
T1 sequence (O76036 22-255 limits assumed): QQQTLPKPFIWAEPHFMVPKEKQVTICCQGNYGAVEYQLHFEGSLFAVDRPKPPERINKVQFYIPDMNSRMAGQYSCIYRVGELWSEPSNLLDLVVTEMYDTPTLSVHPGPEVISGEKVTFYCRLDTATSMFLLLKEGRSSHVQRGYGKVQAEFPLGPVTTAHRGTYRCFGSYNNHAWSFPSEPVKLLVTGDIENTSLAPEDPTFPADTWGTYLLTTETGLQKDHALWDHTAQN
Nature of the assay: SPR Method 1 and/or 2. An outline of the steps:
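Fc-tagged human NKp46 captured on anti-human IgG surface (500–1000 RU); compounds run in PBS-P+ with 2% DMSO at 25 °C, 50 μL/min, 60 s association, 400 s dissociation. Double-referenced, DMSO-corrected; KD from steady-state 1:1 fit, kinetic constants from kinetic 1:1 fit where appropriate.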
The molecule B1 came in with a Kd of 3.5 nM. In other words, the single-digit nanomolar range.
B2 displayed a Kd of 703 nM.
For B3, binding was characterised by a dissociation constant (Kd) of 460 nM.
B4 had a Kd of 83 nM. This Kd lies about 5.5-fold lower than the previous one.
On to B5, for which the affinity, expressed as Kd, was 642 nM.
B6 yielded a Kd of 69 nM.
B7 yielded a Kd of 274 nM. Compared with the last molecule, the Kd is about 4-fold higher.
As for B8, the figure is 611 nM.

By Kd is commonly meant the concentration at which binding is half-saturated. The low end stands for higher affinity, the high end for lower affinity.

For the origin of these results see US20240108738A1 (Bicycle, published 2024).
